Data: PMC6713926 (2019)
Changes are numbered by the printed parent chain. In names and notes the source's numbering stands.

Biological target: Biotinylated C3b (human, UniProt P01024 23-667; P01024 749-1663, biotin (Maleimide-PEG2-Biotin))
Assay: BLI

Sequence of Biotinylated C3b (P01024 23-667, chain 1 of 2): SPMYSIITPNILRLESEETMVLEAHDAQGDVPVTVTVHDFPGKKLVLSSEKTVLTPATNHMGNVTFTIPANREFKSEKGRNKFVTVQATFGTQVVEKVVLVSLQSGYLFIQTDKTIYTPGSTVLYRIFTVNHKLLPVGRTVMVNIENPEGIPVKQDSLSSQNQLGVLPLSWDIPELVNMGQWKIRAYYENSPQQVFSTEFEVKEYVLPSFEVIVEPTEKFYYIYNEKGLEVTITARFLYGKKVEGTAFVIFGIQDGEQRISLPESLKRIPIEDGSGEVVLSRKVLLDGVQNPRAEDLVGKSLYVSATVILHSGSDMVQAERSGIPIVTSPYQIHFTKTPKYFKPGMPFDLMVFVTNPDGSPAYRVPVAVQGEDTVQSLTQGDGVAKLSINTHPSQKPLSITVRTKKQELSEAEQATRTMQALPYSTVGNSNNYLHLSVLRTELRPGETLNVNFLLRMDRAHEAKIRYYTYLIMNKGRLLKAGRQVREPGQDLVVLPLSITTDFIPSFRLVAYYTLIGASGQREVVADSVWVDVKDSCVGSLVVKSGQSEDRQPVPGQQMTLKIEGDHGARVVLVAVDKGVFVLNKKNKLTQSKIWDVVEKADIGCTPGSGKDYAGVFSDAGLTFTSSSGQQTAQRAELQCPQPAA
Sequence of Biotinylated C3b (P01024 749-1663, chain 2 of 2): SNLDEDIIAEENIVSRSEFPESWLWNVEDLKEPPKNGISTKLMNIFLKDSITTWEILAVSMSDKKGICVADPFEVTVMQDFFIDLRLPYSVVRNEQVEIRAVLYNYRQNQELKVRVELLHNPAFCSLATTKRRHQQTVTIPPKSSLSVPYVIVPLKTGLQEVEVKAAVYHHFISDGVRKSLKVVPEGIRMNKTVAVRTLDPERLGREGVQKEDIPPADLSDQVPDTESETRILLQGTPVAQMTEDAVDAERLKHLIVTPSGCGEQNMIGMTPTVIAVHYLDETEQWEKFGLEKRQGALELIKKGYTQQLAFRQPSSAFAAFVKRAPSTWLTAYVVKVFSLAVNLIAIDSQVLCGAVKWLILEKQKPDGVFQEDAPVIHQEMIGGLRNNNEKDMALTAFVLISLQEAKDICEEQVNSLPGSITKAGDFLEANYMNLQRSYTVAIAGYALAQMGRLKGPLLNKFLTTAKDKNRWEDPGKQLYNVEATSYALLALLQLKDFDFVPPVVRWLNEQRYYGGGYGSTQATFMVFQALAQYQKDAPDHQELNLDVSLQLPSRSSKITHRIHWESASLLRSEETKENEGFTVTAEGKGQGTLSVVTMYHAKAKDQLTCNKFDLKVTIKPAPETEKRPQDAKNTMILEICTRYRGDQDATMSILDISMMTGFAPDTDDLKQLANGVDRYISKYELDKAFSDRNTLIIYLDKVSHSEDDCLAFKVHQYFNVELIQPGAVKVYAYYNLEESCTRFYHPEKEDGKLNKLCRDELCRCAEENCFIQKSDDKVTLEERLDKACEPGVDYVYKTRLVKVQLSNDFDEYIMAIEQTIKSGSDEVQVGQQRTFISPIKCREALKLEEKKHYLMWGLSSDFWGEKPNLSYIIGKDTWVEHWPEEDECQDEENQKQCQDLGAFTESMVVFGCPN

B1: FPht Q343R (complex)
chain 1: DPVLCFTQYEESSGKCKGLLGGGVSVEDCCLNTAFAYQKRSGGLCQPCRSPRWSLWSTWAPCSVTCSEGSQLRYRRCVGWNGQCSGKVAPGTLEWQLQACEDQQCCPEMGGWSGWGPWEPCSVTCSKGTRTRRRACNHPAPKCGGHCPGQAQESEACDTQQVCPTHGAWATWGPWTPCSASCHGGPHEPKETRSRKCSAPEPSQKPPGKPCPGLAYEQRRCTGLPPCP
chain 2: VAGGWGPWGPVSPCPVTCGLGQTMEQRTCNHPVPQHGGPFCAGDATRTHICNTAVPCPVDGEWDSWGEWSPCIRRNMKSISCQEIPGRQSRGRTCRGRKFDGHRCAGQQQDIRHCYSIQHCPLKGSWSEWSTWGLCMPPCGPNPTRARQRLCTPLLPKYPPTVSMVEGQGEKNVTFWGRPLPRCEELQGQKLVVEEKRPCLHVPACKDPEEEEL
B1 was tested, and the Kd was 4 µM.

B2: FPht Y414D (complex)
chain 1: B1 chain 1
chain 2: B1 chain 2 with R88Q, Y159D
B2 was tested, and the Kd was 5 µM.
